Our source for the IC50 values is patent US20230055235, “ANTI-CANCER IMMUNOTHERAPEUTIC COMPOSITION FOR TREATING CANCER” (INTEROLIGO CORPORATION., published 2023).

For the data set, the target named is PD-L1 (programmed death-ligand 1) (UniProt Q9NZQ7 Q9NZQ7:19-238). The experiment in a line: inhibition; PD-1/PD-L1 binding ELISA. Here is the method:
PD-1/PD-L1 binding inhibition of the synthetic fragment aptamer was determined by conducting a purified protein-based test. Purified protein-based PD-1/PD-L1 binding inhibition test (BPS, USA) was conducted by ELISA method based on horseradish peroxidase (HRP). First, purified PD-L1 protein according to the product manual was fixed on a 96 well plate, and then each well was washed with Immuno Buffer 1 for a total of 3 times in order to remove unbound PD-L1 protein. Aptamers were prepared in a selection buffer for each experimental concentration and slowly cooled from 95° C. to 37° C. by 0.1° C. per second. 5 μL of the aptamer was added to the well to which PD-L1 protein was fixed, followed by adding 20 μL of Biotin-bound PD-1 protein prepared according to the corresponding instructions to each well again. […] After adding 100 μL of the HRP substrate mixture to the well, from which the supernatant was removed, a fluorescent intensity was measured using a luminometer so as to determine the inhibition of PD-1/PD-L1 binding. IC₅₀ (50% inhibitory concentration) was calculated using the online tool.
Aptamer PD-1/PD-L1 binding inhibitory activity described in Table 6 of Example 1.3.1 was measured in the same manner as in Example 1.2.2.
A general note: In an ELISA, binding on a coated surface is turned into a signal by an enzyme label.

Sequence of PD-L1 (programmed death-ligand 1) (Q9NZQ7 19-238, one chain of several): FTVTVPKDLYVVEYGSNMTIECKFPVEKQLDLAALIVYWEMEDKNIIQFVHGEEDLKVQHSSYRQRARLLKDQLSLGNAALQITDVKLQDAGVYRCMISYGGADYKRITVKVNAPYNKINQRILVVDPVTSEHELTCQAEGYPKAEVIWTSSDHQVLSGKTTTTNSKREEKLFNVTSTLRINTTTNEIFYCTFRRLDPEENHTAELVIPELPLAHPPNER

Consider AAGTTTTTGATTGTACCTTAGTG (ssDNA, Bz-dU at every n) [PL021], for which the IC50 (commonly the concentration needed to halve the response being measured) is 27.7 nM.
